Numbered stars: 1 amine (or outer) side, 2 acyl side, 3 side chain; on linkers, the order of the positions; unused ones are H or OH. Square brackets hold non-standard residues; d marks the D form. Side chains are listed from the residue outwards. 4‑DMNA = 4-N,N-dimethylamino-1,8-naphthalimido-alanine, CN(C)c1ccc2c3c(cccc13)C(=O)N(C[C@H](N[*:1])C(=O)[*:2])C2=O; 4‑DMN = 4-DMN: an environment-sensitive fluorophore; 9‑Å linker = not defined here
Molecular target: Cdc42 (UniProt P60953 1-191)
Assay: other fluorescence titration

Sequence of Cdc42 (P60953 whole entry): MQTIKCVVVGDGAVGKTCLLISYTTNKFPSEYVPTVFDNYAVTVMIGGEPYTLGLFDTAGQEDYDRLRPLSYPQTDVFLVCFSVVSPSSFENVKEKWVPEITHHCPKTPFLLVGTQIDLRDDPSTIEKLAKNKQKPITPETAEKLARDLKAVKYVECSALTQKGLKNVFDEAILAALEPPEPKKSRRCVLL

Binder | Kd
GB1-KKKISKADIGAPSGFKHVSHVGWDPQNGFDVNNLDPDLRSLC([9‑Å linker-4‑DMN])SRAGIS-His6 (domain or fragment, UniProt P42768 230-277, looked up, not fully specified; reading uncertain) [4-DMN sensor 3 (GB1-WASP(230–277)-His6, Phe271Cys, Cys271 labeled with 4-DMN through a 9-Å linker)] | 341 ± 22 nM
GB1-KKKISKADIGAPSGFKHVSHVGWDPQNGFDVNNLDPDLRCL[4‑DMNA]SRAGIS-His6 (domain or fragment) | 385 ± 9 nM
